Assay results as given in patent US8551742B2 (priority 2007, dated 2013).

Assays:
[1] = test system: MetK; assay: MetK mutants radioactive assay in vitro ([methyl-14C]methionine to SAMe); type: biochemical, E. coli; settings: 5 minute reaction time; C-terminal His tagged proteins unless untagged
Description: The metK gene from E. coli (Accession number AP—003499 or BAE77005) was cloned and overexpressed with either an N-terminal or a C-terminal His tag in pET28b vector. Site directed mutagenesis was performed using the C-terminal His tagged metK clone to generate the desired mutants. Expression of the mutant MetK proteins was confirmed.
The MetK mutants were purified (using the C-terminal His tag) and assayed in vitro. The wild type C-terminal His-tagged MetK protein was used as a control. The mutants were assayed using a radioactive assay. The assay conditions were as follows: • Assay Mix: • 1.0 mL 0.5 M HEPES/KOH, pH 8.0 • 0.5 mL 1.0 M KCl • 0.2 mL 1.0 M MgCl2 • 1.0 mL 100 mM ATP (disodium salt, pH 8.0 with KOH) • 0.1 mL 50 mM methionine • 0.1 mL NEN [methyl-^14C]methionine • 6.6 mL H2O • 25 mM EDTA pH 8.0 stop for assays.
45 μl of assay mix was added to an Eppendorf tube and 5 μL of enzyme (normalized data shown in Table 13. The reaction was incubated at room temperature (or 25° C.) for a desired period (1 to 10 minutes). The reaction was stopped with the addition of 150 μL of 25 mM EDTA. 100 μL of the reaction was spotted onto a 2.5 cm diameter Whatman P-81 phosphocellulose filter circle (labeled in pencil). The filters were washed with 3 L of distilled water, air-dried and placed in scintillation vials with aquasol. The emissions were counted using a window that extends from ^14C to about 0. Assay efficiency and quench levels were determined by adding a known amount of counts of pure ^14C-SAM and processing through the whole procedure. Backgrounds are typically<100 cpm (total counts ca. 10^5 cpm per reaction).

[2] = test system: MetK; settings: literature reference; cited from earlier work
[3] = test system: MetA; assay: In-vitro characterization of purified mutant and wild type MetA enzymes (assay of Lawrence, modified); type: biochemical, E. coli
Description: PCR was used to amplify and then clone the five metA mutant genes identified as pCL-A#10, pCL-A#11, pCL-A#32, pCL-A#37, and pCL-A#41, into the pET30a vector. All constructs were subjected to DNA sequence analysis to confirm the presence of mutations. The genes were cloned with a C-terminus His tag for enzyme purification. The enzymes were overexpressed, purified and the activity was measured in the presence of different levels of methionine and SAMe, as described by Lawrence, J. Bacteriol., 109:8-11, 1972. The only modifications to the assay were that multiple points were taken and that the reaction was quenched with guanidine.

[4] = control (no Met or SAM), U = formation of 1 μmole of CoA per minute at room temperature

B1: Gly 77 Val (protein, UniProt P0A817 2-384, looked up, variant G77V)
S-adenosylmethionine synthase: AKHLFTSESVSEGHPDKIADQISDAVLDAILEQDPKARVACETYVKTGMVLVGGEITTSAWVDIEEITRNTVREIVYVHSDMGFDANSCAVLSAIGKQSPDINQGVDRADPLEQGAGDQGLMFGYATNETDVLMPAPITYAHRLVQRQAEVRKNGTLPWLRPDAKSQVTFQYDDGKIVGIDAVVLSTQHSEEIDQKSLQEAVMEEIIKPILPAEWLTSATKFFINPTGRFVIGGPMGDCGLTGRKIIVDTYGGMARHGGGAFSGKDPSKVDRSAAYAARYVAKNIVAAGLADRCEIQVSYAIGVAEPTSIMVETFGTEKVPSEQLTLLVREFFDLRPYGLIQMLDLLHPIYKETAAYGHFGREHFPWEKTDKAQLLRDAAGLK
Activity (CPM SAMe/ μg purified protein/min) [1]: 6.9 CPM SAMe/ μg purified protein/min

B2: Asp 118 Asn (protein, UniProt P0A817 2-384, looked up, variant D118N)
S-adenosylmethionine synthase: AKHLFTSESVSEGHPDKIADQISDAVLDAILEQDPKARVACETYVKTGMVLVGGEITTSAWVDIEEITRNTVREIGYVHSDMGFDANSCAVLSAIGKQSPDINQGVDRADPLEQGAGNQGLMFGYATNETDVLMPAPITYAHRLVQRQAEVRKNGTLPWLRPDAKSQVTFQYDDGKIVGIDAVVLSTQHSEEIDQKSLQEAVMEEIIKPILPAEWLTSATKFFINPTGRFVIGGPMGDCGLTGRKIIVDTYGGMARHGGGAFSGKDPSKVDRSAAYAARYVAKNIVAAGLADRCEIQVSYAIGVAEPTSIMVETFGTEKVPSEQLTLLVREFFDLRPYGLIQMLDLLHPIYKETAAYGHFGREHFPWEKTDKAQLLRDAAGLK
Activity (CPM SAMe/ μg purified protein/min) [1]: 1.3 CPM SAMe/ μg purified protein/min
Expected Effect on SAMe synth: kcat reduction [2]: kcat reduction of ~ 103 fold

B3: WT Untagged: untagged wild type MetK protein, Markham lab (protein, UniProt P0A817 2-384, looked up)
S-adenosylmethionine synthase: AKHLFTSESVSEGHPDKIADQISDAVLDAILEQDPKARVACETYVKTGMVLVGGEITTSAWVDIEEITRNTVREIGYVHSDMGFDANSCAVLSAIGKQSPDINQGVDRADPLEQGAGDQGLMFGYATNETDVLMPAPITYAHRLVQRQAEVRKNGTLPWLRPDAKSQVTFQYDDGKIVGIDAVVLSTQHSEEIDQKSLQEAVMEEIIKPILPAEWLTSATKFFINPTGRFVIGGPMGDCGLTGRKIIVDTYGGMARHGGGAFSGKDPSKVDRSAAYAARYVAKNIVAAGLADRCEIQVSYAIGVAEPTSIMVETFGTEKVPSEQLTLLVREFFDLRPYGLIQMLDLLHPIYKETAAYGHFGREHFPWEKTDKAQLLRDAAGLK
Activity (CPM SAMe/ μg purified protein/min) [1]: 5600 CPM SAMe/ μg purified protein/min

B4: Asp 238 Asn (protein, UniProt P0A817 2-384, looked up, variant D238N)
S-adenosylmethionine synthase: AKHLFTSESVSEGHPDKIADQISDAVLDAILEQDPKARVACETYVKTGMVLVGGEITTSAWVDIEEITRNTVREIGYVHSDMGFDANSCAVLSAIGKQSPDINQGVDRADPLEQGAGDQGLMFGYATNETDVLMPAPITYAHRLVQRQAEVRKNGTLPWLRPDAKSQVTFQYDDGKIVGIDAVVLSTQHSEEIDQKSLQEAVMEEIIKPILPAEWLTSATKFFINPTGRFVIGGPMGNCGLTGRKIIVDTYGGMARHGGGAFSGKDPSKVDRSAAYAARYVAKNIVAAGLADRCEIQVSYAIGVAEPTSIMVETFGTEKVPSEQLTLLVREFFDLRPYGLIQMLDLLHPIYKETAAYGHFGREHFPWEKTDKAQLLRDAAGLK
Activity (CPM SAMe/ μg purified protein/min) [1]: 1.9 CPM SAMe/ μg purified protein/min
Expected Effect on SAMe synth: kcat reduction [2]: kcat reduction of ~ 103 fold

B5: Cys 90 Ser (protein, UniProt P0A817 2-384, looked up, variant C90S)
S-adenosylmethionine synthase: AKHLFTSESVSEGHPDKIADQISDAVLDAILEQDPKARVACETYVKTGMVLVGGEITTSAWVDIEEITRNTVREIGYVHSDMGFDANSSAVLSAIGKQSPDINQGVDRADPLEQGAGDQGLMFGYATNETDVLMPAPITYAHRLVQRQAEVRKNGTLPWLRPDAKSQVTFQYDDGKIVGIDAVVLSTQHSEEIDQKSLQEAVMEEIIKPILPAEWLTSATKFFINPTGRFVIGGPMGDCGLTGRKIIVDTYGGMARHGGGAFSGKDPSKVDRSAAYAARYVAKNIVAAGLADRCEIQVSYAIGVAEPTSIMVETFGTEKVPSEQLTLLVREFFDLRPYGLIQMLDLLHPIYKETAAYGHFGREHFPWEKTDKAQLLRDAAGLK
Activity (CPM SAMe/ μg purified protein/min) [1]: 23.2 CPM SAMe/ μg purified protein/min
Expected Effect on SAMe synth: % of WT activity [2]: Only 10% of WT

B6: Cys 90 Ala (protein, UniProt P0A817 2-384, looked up, variant C90A)
S-adenosylmethionine synthase: AKHLFTSESVSEGHPDKIADQISDAVLDAILEQDPKARVACETYVKTGMVLVGGEITTSAWVDIEEITRNTVREIGYVHSDMGFDANSAAVLSAIGKQSPDINQGVDRADPLEQGAGDQGLMFGYATNETDVLMPAPITYAHRLVQRQAEVRKNGTLPWLRPDAKSQVTFQYDDGKIVGIDAVVLSTQHSEEIDQKSLQEAVMEEIIKPILPAEWLTSATKFFINPTGRFVIGGPMGDCGLTGRKIIVDTYGGMARHGGGAFSGKDPSKVDRSAAYAARYVAKNIVAAGLADRCEIQVSYAIGVAEPTSIMVETFGTEKVPSEQLTLLVREFFDLRPYGLIQMLDLLHPIYKETAAYGHFGREHFPWEKTDKAQLLRDAAGLK
Activity (CPM SAMe/ μg purified protein/min) [1]: Same as WT
Expected Effect on SAMe synth: % of WT activity [2]: Only 10% of WT

B7: WT control: wild type C-terminal His-tagged MetK protein used as a control (protein, UniProt P0A817 2-384, looked up)
S-adenosylmethionine synthase: AKHLFTSESVSEGHPDKIADQISDAVLDAILEQDPKARVACETYVKTGMVLVGGEITTSAWVDIEEITRNTVREIGYVHSDMGFDANSCAVLSAIGKQSPDINQGVDRADPLEQGAGDQGLMFGYATNETDVLMPAPITYAHRLVQRQAEVRKNGTLPWLRPDAKSQVTFQYDDGKIVGIDAVVLSTQHSEEIDQKSLQEAVMEEIIKPILPAEWLTSATKFFINPTGRFVIGGPMGDCGLTGRKIIVDTYGGMARHGGGAFSGKDPSKVDRSAAYAARYVAKNIVAAGLADRCEIQVSYAIGVAEPTSIMVETFGTEKVPSEQLTLLVREFFDLRPYGLIQMLDLLHPIYKETAAYGHFGREHFPWEKTDKAQLLRDAAGLK
modifications: C-terminal His tag
Activity (CPM SAMe/ μg purified protein/min) [1]: 995.4 CPM SAMe/ μg purified protein/min

B8: w.t.: wild type E. coli MetA enzyme (homoserine succinyltransferase), C-terminus His tag, purified (protein, UniProt P07623 2-309, looked up)
Homoserine …: PIRVPDELPAVNFLREENVFVMTTSRASGQEIRPLKVLILNLMPKKIETENQFLRLLSNSPLQVDIQLLRIDSRESRNTPAEHLNNFYCNFEDIQDQNFDGLIVTGAPLGLVEFNDVAYWPQIKQVLEWSKDHVTSTLFVCWAVQAALNILYGIPKQTRTEKLSGVYEHHILHPHALLTRGFDDSFLAPHSRYADFPAALIRDYTDLEILAETEEGDAYLFASKDKRIAFVTGHPEYDAQTLAQEFFRDVEAGLDPDVPYNYFPHNDPQNTPRASWRSHGNLLFTNWLNYYVYQITPYDLRHMNPTLD
modifications: C-terminal His tag
notes: wild type E. coli MetA enzyme (homoserine succinyltransferase), C-terminus His tag, purified
% of specific activity retention ([3]; control): 100%
Specific activity (U/mg) [3, 4]: 386 U/mg
% of specific activity retention ([3]; w/10 mM SAM): 2.9%
Specific activity (U/mg) ([3]; w/10 mM SAM): 11 U/mg
% of specific activity retention ([3]; w/ 100 mM Met): 7.6%
Specific activity (U/mg) ([3]; w/ 100 mM Met): 29 U/mg

B9: #11 (protein, listed as Escherichia coli)
chain: MPIRVPDELPAVNFLREENVFVMTTSRAPGQEIRPLKVLILNLMPKKIETENQFLRLLSNSPLQVDIQLLRIDSRESRNTPAEHLNNFYCNFEDIQDQNFDGLIVTGAPLGLVGFNDVAYWPQIKQVLEWSKDHVTSTLSVCWAVQAALNILYGIPKQTRTEKLSGVYEHHILHPHALLTRGFDDSFLAPHSRYADFPAALIRDYTDLEILAETEEGDAYLFASKDKRIAFVTGHPEYDAQTLAQEFFRDVEAGLDPDVPYNYFPHNDPQNTPRASWRSHGNLLFTNWLNYYVYQITPYDLRHMNPTLD
% of specific activity retention ([3]; control): 100%
Specific activity (U/mg) [3, 4]: 479 U/mg
feed-back inhibition resistance compared to the wild type enzyme ([3]; methionine and SAM inhibition): most resistant
% of specific activity retention ([3]; w/10 mM SAM): 82%
Specific activity (U/mg) ([3]; w/10 mM SAM): 395 U/mg
% of specific activity retention ([3]; w/ 100 mM Met): 94%
Specific activity (U/mg) ([3]; w/ 100 mM Met): 451 U/mg
% of specific activity retention ([3]; w/ 300 mM Met): 56%
Specific activity (U/mg) ([3]; w/ 300 mM Met): 282 U/mg
% of specific activity retention ([3]; w/ 300 mM Met, listed as metA #11): 55%
